In the supplement of paper PMC11780869:

Tested on: Bacillus subtilis
Assay: cleaved RNA product abundance (RNA/gDNA barcode ratio) relative to median wild-type variant (ratio to wild type); higher = more accumulation of the downstream cleavage product
Procedure: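 MPRA in B. subtilis. Mutagenized RNase Y cleavage-site regions (9% mutation rate) were inserted into a barcoded reporter mRNA (truncated aprE or tetM). Cells were grown in LB at 37°C to OD600 0.3. The cleaved RNA isoform was gel-purified and its barcodes counted; the RNA:gDNA barcode ratio was normalised to the median wild-type variant, and the median over barcodes is reported per variant. The printed sequence is the variable window only; the reporter flanks are not printed.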

[1] = experiment (reporter, strain, medium): exp 8a: truncated aprE reporter, strain BJT201 with 2% xylose (RNase J1 expressed), cleavage site: glnRA (positions -5 to +31 mutated)
[2] = experiment (reporter, strain, medium): exp 6: tetM reporter, strain 168, cleavage site: cggR-gapA (positions -7 to +36 mutated)
[3] = experiment (reporter, strain, medium): exp 2b: truncated aprE reporter, strain BJT200, cleavage site: cggR-gapA (positions -7 to +36 mutated)
[4] = experiment (reporter, strain, medium): exp 4a: truncated aprE reporter, strain BJT201 with 2% xylose (RNase J1 expressed), cleavage site: cggR-gapA (positions -7 to +36 mutated)

Sequence: CGACATGTCCCGCTTCTTTCATTAATCCGTTACCAACTGTTTTGCTATATACCTTTACCTTTTAAGAGGAGGAAT
- cleaved RNA product abundance [1]: 0.153

Sequence: ACAGACGAAGGAGCCACAAAGAAGTTATTAAGGGATGAATAATCCCTCAATATAAATATCTCTCACTTATTTAAA
- cleaved RNA product abundance [2]: 1.09

Sequence: ACAGACGAAGGAGCCGCAAAGAAGTTATTAAGATATGAATAATCCCTCAATATAAATATCTCTCACTTATTTAAA
- cleaved RNA product abundance [3]: 0.0758
- cleaved RNA product abundance [4]: 0.115

Sequence: ACAGACGAAGGAGCCGCAAAGAAGTTATTAAGGGATGAATGATCCCTCAATATAAATATCTCTCACTTATTTAAA
- cleaved RNA product abundance [3]: 0.466
- cleaved RNA product abundance [4]: 0.699
- cleaved RNA product abundance [2]: 0.63

Sequence: ACAGACGAAGGAGCCGCAAAGAAGTTATTAAGGGACGAATAATCCCTCAATATAAATTTCTCTCACTTATTTAAA
- cleaved RNA product abundance [4]: 0.559

Sequence: CGACATGTCCCGCTTCTTTCATTAATCCGTTAGTAACTGTTTTGCGATATACATTTACCTTTTAAGAGGAGGAAT
- cleaved RNA product abundance [1]: 0.29

Sequence: ACAGACGAAGGAGCCGCAAAGAAGTTATTAAGGGAAGTATAATCCCTCAATATAAATATCTCTCACTTATTTAAA
- cleaved RNA product abundance [3]: 0.599

Sequence: CGACATGTCCCGCTTCTTTCATTAATCCGTTAGCAACTATTTTGCTATATACATGTACCTTTTAAGAGGAGGAAT
- cleaved RNA product abundance [1]: 1.19

Sequence: ACAGACGAAGGAGCCGCAAAGAAGTTATTAATAGATTAATAATCCCTCAATATAAATATCTCTCACTTATTTAAA
- cleaved RNA product abundance [4]: 0.135

Sequence: ACAGACGAAGGAGCCGCAAATAAGTTATTAAGGGATGAATAATCCCTCAAAATAAATATCTCTCACTTATTTAAA
- cleaved RNA product abundance [3]: 0.34
- cleaved RNA product abundance [4]: 0.322

Sequence: ACAGACGAAGGAGCCGCAAAGAAGTTATTAAGGGCTGAATAATCCCTCAATATACATATCTCTCACTTATTTAAA
- cleaved RNA product abundance [4]: 0.433

Sequence: ACAGACGAAGGAGCCGCAAAAAAGTTATTAAGGGACGAATAATCCCTCAATATAAATATCTCTCACTTATTTAAA
- cleaved RNA product abundance [3]: 0.676
- cleaved RNA product abundance [4]: 0.54

Sequence: ACAGACGAAGGAGCCGCAAAGAAATTATAAAGGGATGAATAATCCCTCAATATAAATATCTCTCACTTATTTAAA
- cleaved RNA product abundance [3]: 0.215
- cleaved RNA product abundance [4]: 0.342

Sequence: CGACATGTCCCGCTTCTTTCATTAATCCGTTAGGAACAGTTTTGCTATATACATTTACCTTTTAAGAGGAGGAAT
- cleaved RNA product abundance [1]: 0.434

Sequence: ACAGACGAAGGAGCCGCAAAGAAGTTATTAACGTATGAATAATCCCTCAATATAAATATCTCTCACTTATTTAAA
- cleaved RNA product abundance [3]: 0.098
- cleaved RNA product abundance [4]: 0.0853

Sequence: ACAGACGAAGGAGCCGCAAAGAAGTTATTAAGGGATGACTAATCCGTCAATATAAATATCTCTCACTTATTTAAA
- cleaved RNA product abundance [4]: 0.213

Sequence: ACAGACGAAGGAGCCGCAAAGAAGTTCTTAAAGGATGAATAATCCCTCAATATAAATATCTCTCACTTATTTAAA
- cleaved RNA product abundance [4]: 0.112

Sequence: CGACATGTCCCGCTTCTTTCATTAATCCGTTAGTAACTGTTTTGCAATATACATTTACCTTTTAAGAGGAGGAAT
- cleaved RNA product abundance [1]: 0.316

Sequence: ACAGACGAAGGAGCCGCAAAGAAATTATTAAGGGATGAATAAGCCCTCAATATAAATATCTCTCACTTATTTAAA
- cleaved RNA product abundance [4]: 0.416

Sequence: CGACATGTCCCGCTTCTTTCATTAATCCGTTAGCAACTGTTTTGCTATATACATTTATCGTTTAAGAGGAGGAAT
- cleaved RNA product abundance [1]: 0.92

Sequence: CGACATGTCCCGCTTCTTTCATTAATCCGTTACCAACTGTTTTGCTATATACATTTACTTTTTAAGAGGAGGAAT
- cleaved RNA product abundance [1]: 0.208

Sequence: ACAGACGAAGGAGCCGCAAATAACTTATTAAGGGATGAATAATCCCTCAATATAAATATCTCTCACTTATTTAAA
- cleaved RNA product abundance [3]: 0.465
- cleaved RNA product abundance [4]: 0.465
- cleaved RNA product abundance [2]: 0.719

Sequence: ACAGACGAAGGAGCCGCAAAGAAGTTGTTAAGGGATGAATAATCCGTCAATATAAATATCTCTCACTTATTTAAA
- cleaved RNA product abundance [4]: 0.418

Sequence: ACAGACGAAGGAGCCGCAAAGAAGTTATTAAGGGATGAATAAGCCCTCAAGATAAATATCTCTCACTTATTTAAA
- cleaved RNA product abundance [4]: 0.176

Sequence: ACAGACGAAGGAGCCGCAAAGAAGTTATTAAGGGATGAATAATCCCTCAATATTAATATCTCTCACTTATTTAAA
- cleaved RNA product abundance [3]: 0.169
- cleaved RNA product abundance [4]: 0.113
- cleaved RNA product abundance [2]: 0.249

Sequence: ACAGACGAAGGAGCCGCTAAGAAGTTATTAATGGATGAATAATCCCTCAATATAAATATCTCTCACTTATTTAAA
- cleaved RNA product abundance [4]: 0.172

Sequence: ACAGACGAAGGAGCCGCAAAGAAGTTATTAAGGGTTGAATAAGCCCTCAATATAAATATCTCTCACTTATTTAAA
- cleaved RNA product abundance [4]: 0.608

Sequence: ACAGACGAAGGAGCCGCAAAGAAGTTATTAAGGGATGATAATCCCTCAATATAAATATCTCTCACTTATTTAAAG
- cleaved RNA product abundance [4]: 0.861

Sequence: ACAGACGAAGGAGCCGCAAACAAGTTATTAAGGGATGAATTATCCCTCAATATAAATATCTCTCACTTATTTAAA
- cleaved RNA product abundance [3]: 0.669
